Measurements: doi:10.1101/315713 (bioRxiv, 2018)

Target: the molecule itself

B1: Dipeptidase 3 (DPEP3), native, from testicular tissue and spermatozoa lysates (natural protein, UniProt Q9H4B8 36-463, looked up)
chain: AETTPGAPRALSTLGSPSLFTTPGVPSALTTPGLTTPGTPKTLDLRGRAQALMRSFPLVDGHNDLPQVLRQRYKNVLQDVNLRNFSHGQTSLDRLRDGLVGAQFWSASVSCQSQDQTAVRLALEQIDLIHRMCASYSELELVTSAEGLNSSQKLACLIGVEGGHSLDSSLSVLRSFYVLGVRYLTLTFTCSTPWAESSTKFRHHMYTNVSGLTSFGEKVVEELNRLGMMIDLSYASDTLIRRVLEVSQAPVIFSHSAARAVCDNLLNVPDDILQLLKKNGGIVMVTLSMGVLQCNLLANVSTVADHFDHIRAVIGSEFIGIGGNYDGTGRFPQGLEDVSTYPVLIEELLSRSWSEEELQGVLRGNLLRVFRQVEKVREESRAQSPVEAEFPYGQLSTSCHSHLVPQNGHQATHLEVTKQPTNRVPWRS
stoichiometry N: 2

B2: DPEP3, free soluble native form in seminal plasma (natural protein, human (endogenous in seminal plasma), UniProt Q9H4B8 36-463, looked up)
chain: AETTPGAPRALSTLGSPSLFTTPGVPSALTTPGLTTPGTPKTLDLRGRAQALMRSFPLVDGHNDLPQVLRQRYKNVLQDVNLRNFSHGQTSLDRLRDGLVGAQFWSASVSCQSQDQTAVRLALEQIDLIHRMCASYSELELVTSAEGLNSSQKLACLIGVEGGHSLDSSLSVLRSFYVLGVRYLTLTFTCSTPWAESSTKFRHHMYTNVSGLTSFGEKVVEELNRLGMMIDLSYASDTLIRRVLEVSQAPVIFSHSAARAVCDNLLNVPDDILQLLKKNGGIVMVTLSMGVLQCNLLANVSTVADHFDHIRAVIGSEFIGIGGNYDGTGRFPQGLEDVSTYPVLIEELLSRSWSEEELQGVLRGNLLRVFRQVEKVREESRAQSPVEAEFPYGQLSTSCHSHLVPQNGHQATHLEVTKQPTNRVPWRS
stoichiometry N: 2
